Patent US10494415B2, “Insulin-like growth factor 2 (IGF2) binding agents” (Cancer Research Technology Limited, priority 2015, dated 2019)
“Also recorded” adds a separate entry of the source. Marks after values point to notes of the source that are not given here.

What was measured:
IGF2 = IGF2 (Homo sapiens, UniProt P01344); assay: SPR (Biacore T200) of recombinant IGF2R domain 11 mutants on immobilised biotinylated IGF2; assay type: binding; design: purchased GroPep
Procedure, shortened: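 Biotinylated IGF2 (or IGF1) captured on streptavidin chip; domain 11 mutants (E. coli or P. pastoris, AB5 background) injected at 25 °C, 40 μL/min, in HBS-EP pH 7.4 or MES-EP pH 6.5. kon/koff from 1:1 fit; KD as mean of 2-5 repeats.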

IGF1 = IGF1 (Homo sapiens, UniProt P05019); assay: SPR of domain 11 mutants on immobilised biotinylated IGF1 (specificity); assay type: binding
Sequence of IGF1 (P05019 49-118): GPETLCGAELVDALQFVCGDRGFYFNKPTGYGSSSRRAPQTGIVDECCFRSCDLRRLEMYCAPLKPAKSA
From the text: Surface plasmon resonance (SPR) binding analysis of recombinant M6P/IGF2R domain 11 mutants interaction with IGF2. Kon indicates association (on) rate; koff, dissociation (off) rate; RU, response units. Binding to IGF2 assessed with BIAcore T200 using purified biotinylated IGF2 and IGF1 on a streptavidin biosensor chip. Recombinant proteins were expressed either in E. coli and/or P. pastoris. All the mutants in the FG and CD loops are on the domain 11^AB5 background for the AB loop unless otherwise stated. All experiments were carried out at 25° C. in HBS-EP buffer (pH 7.4), were repeated 2-5 times on two independent BIAcore chips. nd=not determined. Data for KD expressed as mean of each experiment, and means of kon and koff are shown.
Final kinetic analysis of mutants by SPR was conducted using a Biacore T200 biosensor at 25° C. in either HBS-EP (10 mM HEPES pH 7.4, 150 mM NaCl, 3 mM EDTA, and 0.005% (v/v) surfactant P20) or MES-EP (20 mM MES pH 6.5, 150 mM NaCl, 3 mM EDTA, and 0.005% (v/v) surfactant P20) at a flow-rate of 40 μL min^−1. […] This interaction was also analysed by immobilizing the Fc-domain 11^AB5 and Fc-domain 11^AB5-RHH (or Fc-domain 11^I1572A as control) by Human Antibody Capture (monoclonal mouse anti-human IgG antibody immobilised on a CM5 chip by amine coupling, GE Healthcare) with and without human IgG1 Fc fragment (Bethyl Laboratories, UK) in the control flow cell. […]

[1] = system: IGF2^1-67-induced hypoglycaemia; assay: IGF2-induced hypoglycaemia mouse model; assay type: in vivo
From the text: All animal experiments were approved by the animal use ethical committee of Oxford University and fully complied with UK Home Office guidelines (PPL 30/2695). Wild-type C57BL/6J and 129S2 mice were used throughout. Mice were anaesthetised using a rising concentration of isoflurane in oxygenated air and maintained using 2% isoflurane with 2 L min^−1 oxygen. Blood glucose measurements were taken using an Advantage diabetic glucose meter (Roche Diagnostics, Burgess Hill, UK). In order to test the direct inhibition of IGF2-induced hypoglycaemia by Fc-domain 11^AB5, blood glucose levels were allowed to normalise for 30 min prior to taking a baseline blood glucose reading, then either 1 mg kg^−1 IGF2 only (R&D systems), […], Fc-domain 11^RHH, or Fc-domain 11^I1572A ([…]) was injected. Blood glucose measurements were taken every 10 min for the following hour. For the Fc-domain 11^AB5 mouse preloading experiment, 11.7 mg kg^−1 Fc-domain 11^AB5 or PBS, as negative control, was injected immediately after induction of anaesthesia, 30 mins later a baseline blood glucose reading was taken and 1 mg kg^−1 IGF2 ([…]) was injected, readings were then taken every 10 min for the following hour. For the mouse IGF2 preloading experiment, 1 mg kg^−1 IGF2 was injected immediately after induction of anaesthesia, 30 min later a baseline blood glucose reading was taken and either 11.7 mg kg^−1 Fc-domain 11^AB5 ([…]) or PBS was injected, readings were then taken every 10 min for the following hour.

IGF2^1-67 = molecular target: T1, IGF2^1-67 (Homo sapiens, UniProt P01344); assay: SPR of IGF forms on Fc-domain 11 proteins immobilised by antibody capture; assay type: binding; settings: HBS-EP pH 7.4
T1 construct: Recombinant mature (IGF2^1-67 [7.5 kDa]
T1 sequence (P01344 25-91): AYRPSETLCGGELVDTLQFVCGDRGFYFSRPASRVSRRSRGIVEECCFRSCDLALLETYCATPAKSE
Procedure: (§1) SPR analysis of the interaction of recombinant IGF1 and IGF2 forms with Fc-domain 11 proteins immobilised by antibody capture (CM5 chip containing monoclonal mouse anti-human IgG antibody immobilised by amine coupling). Measurements were carried out at 25° C. in HBS-EP buffer (pH 7.4).
(§2) Final kinetic analysis of mutants by SPR was conducted using a Biacore T200 biosensor at 25° C. in either HBS-EP (10 mM HEPES pH 7.4, 150 mM NaCl, 3 mM EDTA, and 0.005% (v/v) surfactant P20) or MES-EP (20 mM MES pH 6.5, 150 mM NaCl, 3 mM EDTA, and 0.005% (v/v) surfactant P20) at a flow-rate of 40 μL min^−1. […] For the analysis of the Fc-domain 11^AB5 interaction, approximately 50 RU of a biotinylated IGF2:biotinylated ubiquitin mixture (1:8 proportion) was immobilized on the CM5-streptavidin chip. This interaction was also analysed by immobilizing the Fc-domain 11^AB5 and Fc-domain 11^AB5-RHH (or Fc-domain 11^I1572A as control) by Human Antibody Capture (monoclonal mouse anti-human IgG antibody immobilised on a CM5 chip by amine coupling, GE Healthcare) with and without human IgG1 Fc fragment (Bethyl Laboratories, UK) in the control flow cell. Increasing concentrations of IGF2^1-67, proIGF2^1-104, proIGF2^1-156 and IGF1 ranging from 0.125 to 32 nM were injected. T200 BiaEvaluation software (GE Healthcare) was used to fit the resulting curves according to a 1:1 binding model. Steady state affinities were determined using the kinetic data, taking the response average at 5 seconds before injection end and for 5 seconds average. Thermodynamic data was performed across the temperature range of 10° C. to 30° C., van't Hoff and Erying plots generated and ΔH, −TΔS and ΔG values determined as previously described.

IGF2^1-104 = molecular target: T2, IGF2^1-104 (Homo sapiens, UniProt P01344); assay: as above; assay type: binding; settings: HBS-EP pH 7.4
T2 construct: pro-IGF2 (pro-IGF2^1-104 [11 kDa]
T2 sequence (P01344 25-128): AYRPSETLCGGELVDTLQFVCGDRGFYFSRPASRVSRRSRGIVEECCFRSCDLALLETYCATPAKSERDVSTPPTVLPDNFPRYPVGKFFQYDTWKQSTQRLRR
Procedure: as §1, §2

IGF2^1-156 = molecular target: T3, IGF2^1-156 (Homo sapiens, UniProt P01344); assay: as above; assay type: binding; settings: for Kinetics koff: HBS-EP pH 7.4; for Kinetics kon: may be inaccurate (mixture of three isoforms)
T3 construct: pro-IGF2^1-156 [17 kDa]
T3 sequence (P01344 25-180): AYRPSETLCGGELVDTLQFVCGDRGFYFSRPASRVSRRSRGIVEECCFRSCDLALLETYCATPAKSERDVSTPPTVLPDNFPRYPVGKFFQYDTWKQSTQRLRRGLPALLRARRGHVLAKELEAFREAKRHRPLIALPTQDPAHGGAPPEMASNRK
Procedure: as §1, §2

Huh7 cells = assay: Apoptosis in hepatocellular carcinoma cells; assay type: cell-based, human
Hep3B cells = assay: Cell proliferation assay (EdU incorporation); assay type: cell-based, human; settings: relative to OSI-06
Procedure: EdU incorporation was used to measure cell proliferation (Invitrogen, C10338). Briefly, cells were plated at a density of 2×10^5 cells/well in 6-well plates and cultured in serum free media. After 24 hr of serum starvation, PBS (black) and 1.5 μM Fc-domain 11^I1572 (grey) as negative controls, 0.5 and 1.5 μM Fc-domain 11^AB5 (orange), 1 μM OSI-906 (purple) and 0.1 and 0.5 μM doxycycline (green) as positive controls were added to the different wells and cells were further cultured. After 48 hr, 10 μM EdU was added for 3 hr and cells were then washed and trypsinised, followed by fixation in 4% PFA and permeabilisation in TBS/5% Triton. The Alexa 555 dye was then attached to the EdU molecules by click chemistry following the manufacturer's instructions and the % of EdU incorporation under different conditions was then analysed by flow cytometry.

Hep 3B2.1-7 cells = assay: In vitro cell viability (CellTiter 96 AQueous); assay type: cell-based, human; settings: cell line not specified in the sentence (FIG. 10: Hep3B, Huh7)
Procedure: The human hepatocellular carcinoma cell lines Hep 3B2.1-7 and Huh-7D12 were obtained from the ATCC (HB-8065) and the ECACC (Catalogue number 1042712), respectively. Hep 3B2.1-7 was grown in EMEM (Lonza) supplemented with 10% (v/v) fetal bovine serum, 100 U mL-1 penicillin, 100 μg mL-1 streptomycin, and 2 mM Lglutamine Huh-7D12 was grown in DMEM (Sigma) supplemented with 10% fetal bovine serum, 100 U mL-1 penicillin, 100 μg mL-1 streptomycin, and 2 mM L-glutamine. Cells were plated in 96-well plates at a density of 1-2×10^4 cells/well in serum free medium. After 24 hr, Fc-domain 11^AB5 (orange), Fc-domain 11^I1572A as negative control (grey) or OSI-906 (purple) were added to each well to different final concentrations and the cells were incubated for further 48-72 hr. Cell viability was assayed at 48 and 72 hr after Fc-domain 11^AB5 treatment using the CellTiter 96® AQueous Non-Radioactive Cell Proliferation Assay (Promega). The half maximal inhibitory concentration (IC50) was calculated using graph prism.

[2] = pre-loading, co-injection or post-loading

Sequence of IGF2 (P01344 25-91): as the sequence (P01344 25-91) above

Kinetics koff (IGF2; Table 1, 25° C., HBS-EP pH 7.4) | Kinetics kon (IGF2; Table 1, 25° C., HBS-EP pH 7.4) | Kinetics koff (IGF2; Table 3, 25° C., HBS-EP pH 7.4) | Kinetics kon (IGF2; Table 3, 25° C., HBS-EP pH 7.4) | Kinetics koff (IGF2; Table 4, MES-EP pH 6.5) | Kinetics kon (IGF2; Table 4, MES-EP pH 6.5) | IGF2 specificity with respect to IGF1 (IGF1) | Kinetics koff (IGF2^1-67) | Kinetics kon (IGF2^1-67) | Kinetics koff (IGF2^1-104) | Kinetics kon (IGF2^1-104) | Kinetics koff (IGF2^1-156) | Kinetics kon (IGF2^1-156) | Molecule | IGF2-induced hypoglycaemia (blood glucose) ([1]; administered 30 min after 1 mg kg^−1 IGF2^1-67) | IGF2-induced hypoglycaemia (blood glucose) [1, 2] | IGF2-induced hypoglycaemia (blood glucose) ([1]; preloading 30 min before 1 mg kg^−1 IGF2^1-67) | IGF2-induced hypoglycaemia (blood glucose) ([1]; premixed / co-injected with 1 mg kg^−1 IGF2^1-67, molar ratio 1:1) | Apoptosis (Huh7 cells) | Proliferation (Hep3B cells) | Inhibitory effect on cell lines (Hep 3B2.1-7 cells)
0.0208 s⁻¹ | 4.21e+06 M⁻¹ s⁻¹ | 0.0208 s⁻¹ | 4.21e+06 M⁻¹ s⁻¹ | 0.0180 s⁻¹ | 4.17e+06 M⁻¹ s⁻¹ | retained IGF2 specificity |  |  |  |  |  |  | AB5: IGF2R domain 11 with five AB loop mutations S1543A, E1544K, K1545G, G1546W, L1547G (YAKGWG) (protein) MKSNEHDDCQVTNPSTGHLFDLSSLSGRAGFTAAYAKGWGVYMSICGENENCPPGVGACFGQTRISVGKANKRLRYVDQVLQLVYKDGSPCPSKSGLSYKSVISFVCRPEAGPTNRPMLISLDKQTCTLFFSWHTPLACEQATECSV |  |  |  |  |  |  | 
 |  |  |  |  |  |  | 0.025 s⁻¹ | 6.47e+06 M⁻¹ s⁻¹ | 0.0069 s⁻¹ | 1.287e+07 M⁻¹ s⁻¹ | 0.0009 s⁻¹ | 4.19* ×10^6 M^−1s^−1 | Fc-domain 11^AB5: human IgG1 Fc-fusion of domain 11^AB5 (protein, left off: a dimerising Fc or GST, human IgG1 Fc-fusion of domain 11^AB5) NEHDDCQVTNPSTGHLFDLSSLSGRAGFTAAYAKGWGVYMSICGENENCPPGVGACFGQTRISVGKANKRLRYVDQVLQLVYKDGSPCPSKSGLSYKSVISFVCRPEAGPTNRPMLISLDKQTCTLFFSWHTPLACEQAT | can reverse IGF2-induced hypoglycaemia | significant abrogation of the hypoglycaemic effects | protects against IGF2-induced hypoglycaemia | abrogation; also recorded: prevents IGF2-induced hypoglycaemia | promoted | inhibited | 
 |  |  |  |  |  |  |  |  | 0.002 s⁻¹ | 520000 M⁻¹ s⁻¹ | 0.0008 s⁻¹ | 0.29* ×10^6 M^−1s^−1 | Fc-domain 11^I1572A: low binder Fc-domain 11 fusion with I1572A, non-IGF2 binding control (protein, left off: a dimerising Fc or GST) NEHDDCQVTNPSTGHLFDLSSLSGRAGFTAAYSEKGLVYMSICGENENCPPGVGACFGQTRASVGKANKRLRYVDQVLQLVYKDGSPCPSKSGLSYKSVISFVCRPEAGPTNRPMLISLDKQTCTLFFSWHTPLACEQAT |  | not detected |  |  |  |  | no effect
